Holding throughout (assay): native gel or EMSA
A general note: Mobility shift assays separate free from complexed probe on a gel.

The target of experiment [1] is human TCRγδ (clonotypic heterodimer of the γδ TCR) (human (endogenous in PBMCs and γδ T cell clones)).
Experiment [2] addresses mouse TCRγδ (transgenic TCRVγ1.1 and TCRVδ6 chains) (mouse).
Experiment [3] shares this target. This is another data set of the same source.

Where two headings read alike, the source gives them in different places.

As usually defined, the stoichiometry N is a count of units in the complex or per binding partner.

Regarding “human CD3γ (from UniProt P09693 23-182) (natural protein)”, the stoichiometry N in experiment [1] amounted to 1.
Still for that read-out and setting: under “human CD3δ (from UniProt P04234 22-171) (natural protein)” stands 1; under “human CD3ε (from UniProt P07766 23-207) (natural protein)”, 2; under “human ζ chain of the TCR (ζζ dimer) (from UniProt P20963 22-164) (natural protein)”, 2.
Molecule “mouse CD3ε (from UniProt P22646 22-189) (natural protein)” had a stoichiometry N in experiment [2] of 2.

B1: mouse CD3γ (natural protein)
chain: QTNKAKNLVQVDGSRGDGSVLLTCGLTDKTIKWLKDGSIISPLNATKNTWNLGNNAKDPRGTYQCQGAKETSNPLQVYYRMCENCIELNIGTISGFIFAEVISIFFLALGVYLIAGQDGVRQSRASDKQTLLQNEQLYQPLKDREYDQYSHLQGNQLRKK
Take B1: in experiment [3], the stoichiometry N was determined as 2.

The values above are taken from article PMC2118495.
